# ± gives the standard deviation of the averaged measurements.
# What was measured:
# Saccharomyces cerevisiae [1] = assay: protein stability index of tFT-peptide fusion (C-terminal peptide) (PSI (0-1 scale)); higher = more stable (slower turnover)
# Description: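 MPS profiling in S. cerevisiae of the tFT-X12 degron library: putative degron peptides plus stable controls, 12 aa, fused to the C-terminus of a sfGFP-mCherry timer. Cells are FACS-sorted into 8 mCherry/sfGFP bins and deep-sequenced. PSI runs from 0 (unstable) to 1 (stable). Backgrounds are wild type, das1Δ and doa10Δ at 30 °C, and wild type, das1Δ, cdc34-1 and cdc53-1 at 37 °C; 2-3 technical replicates each.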
# Saccharomyces cerevisiae [2] = assay: as above; details: genetic background: wild type; temperature: 30 C
# [3] = genetic background: cdc34-1, temperature: 37 C
# [4] = genetic background: cdc53-1, temperature: 37 C
# [5] = genetic background: das1 deletion, temperature: 30 C
# [6] = genetic background: das1 deletion, temperature: 37 C
# [7] = genetic background: doa10 deletion, temperature: 30 C
# [8] = genetic background: wild type, temperature: 30 C
# [9] = genetic background: wild type, temperature: 37 C
# 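Further: PSI is a weighted mean of sequencing reads over stability bins, variants kept only with over 10 reads, mCherry proximal and sfGFP distal, peptide attached via GGGS linker.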
Sequence,protein stability index (Saccharomyces cerevisiae [1]; [3]),protein stability index (Saccharomyces cerevisiae [1]; [4]),protein stability index (Saccharomyces cerevisiae [1]; [5]),protein stability index (Saccharomyces cerevisiae [1]; [6]),protein stability index (Saccharomyces cerevisiae [1]; [7]),protein stability index (Saccharomyces cerevisiae [1]; [8]),protein stability index (Saccharomyces cerevisiae [1]; [9]),protein stability index (Saccharomyces cerevisiae [2])
PGSIGVVIAVRS,0.461 ± 0.019,0.512 ± 0.013,0.345 ± 0.044,0.574 ± 0.02,0.2863 ± 0.0007,0.363 ± 0.015,0.517 ± 0.0066,0.464 ± 0.0078
PGVWVVILRWWV,0.0876 ± 0.044,0.179 ± 0.011,0.123 ± 0.02,0.243 ± 0.035,0.0879 ± 0.0095,0.0841 ± 0.034,0.182 ± 0.011,0.152 ± 0.01
PIHILTHTYIGR,0.669 ± 0.028,0.7695 ± 0.00066,0.636 ± 0.025,0.719 ± 0.013,0.643 ± 0.014,0.664 ± 0.012,0.707 ± 0.013,0.738 ± 0.018
PILRGRPTPAIL,0.691 ± 0.031,0.731 ± 0.013,0.662 ± 0.018,0.7426 ± 0.0046,0.681 ± 0.018,0.668 ± 0.023,0.7026 ± 0.0044,0.708 ± 0.021
PLLVVPVPRALY,0.675 ± 0.082,0.72 ± 0.0074,0.626 ± 0.011,0.733 ± 0.018,0.242 ± 0.0057,0.281 ± 0.013,0.491 ± 0.038,0.382 ± 0.021
PLYFSVFSLLFL,0.522 ± 0.03,0.556 ± 0.048,0.489 ± 0.015,0.631 ± 0.025,0.478 ± 0.026,0.41 ± 0.021,0.539 ± 0.013,0.473 ± 0.012
PPLLLFLSLAFL,0.322 ± 0.02,0.407 ± 0.012,0.285 ± 0.027,0.449 ± 0.015,0.239 ± 0.012,0.271 ± 0.028,0.441 ± 0.009,0.381 ± 0.054
PPPLPPPSPSRP,0.66 ± 0.024,0.7072 ± 0.0012,0.677 ± 0.02,0.7025 ± 0.0061,0.695 ± 0.026,0.6727 ± 0.0031,0.68331 ± 0.00024,0.421 ± 0.0055
PPPPPPLPSSFP,0.679 ± 0.024,0.749 ± 0.0084,0.645 ± 0.009,0.7094 ± 0.0028,0.666 ± 0.033,0.655 ± 0.01,0.7063 ± 0.0068,0.449 ± 0.026
PPPYPPPPARSL,0.6336 ± 0.00079,0.6951 ± 0.0027,0.673 ± 0.016,0.6884 ± 0.0056,0.6825 ± 0.0033,0.689 ± 0.022,0.6823 ± 0.0034,0.5 ± 0.014
PPRPLHPPCRPP,0.64 ± 0.021,0.6975 ± 0.00072,0.66 ± 0.033,0.6943 ± 0.0015,0.659 ± 0.024,0.657 ± 0.013,0.688 ± 0.011,0.702 ± 0.013
PPSPPLPPPSPF,0.671 ± 0.013,0.773 ± 0.019,0.69 ± 0.0097,0.742 ± 0.041,0.694 ± 0.036,0.67 ± 0.018,0.707 ± 0.016,0.34 ± 0.046
PPSPPPPPPSPF,0.695 ± 0.031,0.7371 ± 0.0055,0.683 ± 0.0043,0.7378 ± 0.0022,0.721 ± 0.031,0.679 ± 0.033,0.719 ± 0.034,0.304 ± 0.025
PRHERPPRDNGH,0.674 ± 0.041,0.72232 ± 0.00022,0.655 ± 0.011,0.73 ± 0.013,0.6522 ± 0.0063,0.654 ± 0.025,0.702 ± 0.022,0.709 ± 0.025
PRPSPPLPPPSS,0.665 ± 0.082,0.712 ± 0.011,0.643 ± 0.027,0.739 ± 0.019,0.673 ± 0.032,0.677 ± 0.021,0.688 ± 0.017,0.4726 ± 0.0028
PRRVTVPGVPPL,0.672 ± 0.018,0.736 ± 0.033,0.669 ± 0.035,0.737 ± 0.014,0.643 ± 0.01,0.66 ± 0.01,0.7039 ± 0.0025,0.71 ± 0.014
PRSLHVLSRFLP,0.692 ± 0.06,0.7371 ± 0.0014,0.651 ± 0.017,0.763 ± 0.037,0.599 ± 0.048,0.606 ± 0.031,0.712 ± 0.02,0.691 ± 0.018
PSRRLRHFATSP,0.623 ± 0.058,0.68 ± 0.021,0.736 ± 0.037,0.6646 ± 0.0047,0.747 ± 0.038,0.703 ± 0.0095,0.6412 ± 0.00013,0.741 ± 0.023
PTFSPSLPPPRS,0.632 ± 0.03,0.715 ± 0.012,0.678 ± 0.027,0.703 ± 0.02,0.712 ± 0.027,0.694 ± 0.022,0.67608 ± 0.00018,0.3693 ± 0.0019
PVTAVYFVLYIW,0.134 ± 0.0025,0.231 ± 0.017,0.177 ± 0.032,0.332 ± 0.019,0.143 ± 0.01,0.167 ± 0.026,0.298 ± 0.035,0.251 ± 0.03

Sequence,protein stability index (Saccharomyces cerevisiae [1]; [3]),protein stability index (Saccharomyces cerevisiae [1]; [4]),protein stability index (Saccharomyces cerevisiae [1]; [5]),protein stability index (Saccharomyces cerevisiae [1]; [6]),protein stability index (Saccharomyces cerevisiae [1]; [7]),protein stability index (Saccharomyces cerevisiae [1]; [8]),protein stability index (Saccharomyces cerevisiae [1]; [9]),protein stability index (Saccharomyces cerevisiae [2])
PYLSAPLVATLS,0.378 ± 0.014,0.424 ± 0.025,0.274 ± 0.057,0.474 ± 0.0082,0.234 ± 0.012,0.28 ± 0.045,0.426 ± 0.0049,0.3853 ± 0.0035
QDQWINTSLELS,0.677 ± 0.018,0.759 ± 0.0081,0.676 ± 0.039,0.7465 ± 0.0027,0.685 ± 0.015,0.68 ± 0.035,0.711 ± 0.024,0.751 ± 0.056
QLIDVGLLNCAA,0.499 ± 0.044,0.557 ± 0.033,0.435 ± 0.03,0.611 ± 0.052,0.412 ± 0.011,0.45 ± 0.027,0.5616 ± 0.0023,0.498 ± 0.079
QWTVRNQGVMQR,0.699 ± 0.018,0.743 ± 0.0096,0.652 ± 0.012,0.754 ± 0.016,0.65 ± 0.036,0.681 ± 0.051,0.721 ± 0.026,0.73 ± 0.017
QYRLMQKKIVNI,0.644 ± 0.022,0.743 ± 0.048,0.647 ± 0.015,0.718 ± 0.014,0.119 ± 0.013,0.147 ± 0.024,0.253 ± 0.015,0.229 ± 0.059
RAEASFFLPKVG,0.675 ± 0.046,0.711 ± 0.0076,0.668 ± 0.033,0.732 ± 0.016,0.41 ± 0.013,0.446 ± 0.01,0.6398 ± 0.0037,0.435 ± 0.07
RAQQRVKERYIE,0.74 ± 0.046,0.729 ± 0.014,0.669 ± 0.022,0.7311 ± 0.0059,0.517 ± 0.058,0.581 ± 0.067,0.69 ± 0.0077,0.432 ± 0.0045
RCIRRWPYILKL,0.576 ± 0.017,0.667 ± 0.0087,0.615 ± 0.038,0.758 ± 0.059,0.214 ± 0.0092,0.206 ± 0.042,0.285 ± 0.031,0.273 ± 0.019
RCSLFAKQVVSL,0.381 ± 0.032,0.442 ± 0.029,0.451 ± 0.012,0.405 ± 0.0067,0.437 ± 0.021,0.43 ± 0.0057,0.37093 ± 0.00035,0.453 ± 0.074
RERRISRIPCLS,0.594 ± 0.058,0.678 ± 0.01,0.526 ± 0.018,0.6867 ± 0.0014,0.174 ± 0.0033,0.185 ± 0.035,0.362 ± 0.028,0.276 ± 0.057
RFHFAAPPHRPS,0.703 ± 0.024,0.744 ± 0.0012,0.679 ± 0.027,0.748 ± 0.0096,0.694 ± 0.062,0.668 ± 0.034,0.7583 ± 0.0022,0.879 ± 0.01
RFIYYCVDVFFS,0.0337 ± 0.01,0.147 ± 0.025,0.123 ± 0.049,0.215 ± 0.021,0.0847 ± 0.031,0.1 ± 0.034,0.19 ± 0.037,0.176 ± 0.033
RFLACSIRYLVY,0.294 ± 0.012,0.425 ± 0.037,0.286 ± 0.025,0.41 ± 0.008,0.227 ± 0.0073,0.277 ± 0.018,0.4 ± 0.027,0.332 ± 0.025
RFRFRRTCLYAT,0.5745 ± 0.0034,0.588 ± 0.077,0.501 ± 0.028,0.655 ± 0.013,0.0931 ± 0.039,0.14 ± 0.0057,0.217 ± 0.033,0.197 ± 0.0089
RGAVRVAWYPVL,0.699 ± 0.00098,0.737 ± 0.01,0.64 ± 0.011,0.7511 ± 0.0011,0.492 ± 0.019,0.517 ± 0.0095,0.684 ± 0.011,0.508 ± 0.095
RGDCFLVLCVWR,0.499 ± 0.022,0.535 ± 0.015,0.366 ± 0.032,0.563 ± 0.017,0.348 ± 0.0047,0.362 ± 0.026,0.541 ± 0.0062,0.485 ± 0.0086
RGGPPPCPLLAA,0.68 ± 0.036,0.698 ± 0.032,0.585 ± 0.012,0.688 ± 0.0092,0.571 ± 0.035,0.584 ± 0.011,0.664 ± 0.013,0.51 ± 0.034
RGGWVVVLGCVG,0.634 ± 0.034,0.6292 ± 0.0044,0.482 ± 0.029,0.6417 ± 0.0043,0.468 ± 0.021,0.486 ± 0.018,0.635 ± 0.036,0.501 ± 0.016
RGLWAAIPRKCT,0.669 ± 0.04,0.74108 ± 0.00026,0.645 ± 0.0061,0.754 ± 0.016,0.179 ± 0.027,0.223 ± 0.023,0.548 ± 0.02,0.358 ± 0.028

# Reference: the supplement of paper PMC10724198
